From patent publication US20150284743A1, “METHODS FOR THE ENZYMATIC PRODUCTION OF ISOPRENE FROM ISOPRENOL” (GLOBAL BIOENERGIES, priority 2012, published 2015) come the findings set out here.

Substrate in series [1]: CC(C)=CCO
The series is described as follows: Prenol phosphorylation, pyruvate kinase/lactate dehydrogenase coupled assay (ADP release), B. subtilis kinase. Conditions: other: prenol, 5 mM ATP, pH 7.5, 37° C., enzyme 0.5 mg/ml. The series is classed as biochemical, Bacillus subtilis. Here is the method: (§1) The genes encoding the enzymes of interest were cloned in the pET 25b(+) vector (Novagen). Nucleotide sequences encoding a chloroplast transit peptide in plant terpene synthases were removed, resulting in DNA sequences encoding the mature proteins only. […] Competent E. coli BL21(DE3) cells (Novagen) were transformed with this vector by heat shock. The transformed cells were grown with shaking (160 rpm) on ZYM-5052 auto-induction medium (Studier FW, Prot. Exp. Pur. 41, (2005), 207-234) for 6 h at 37° C. and protein expression was continued at 28° C. or 20° C. overnight (approximately 16 h). The cells were collected by centrifugation at 4° C., 10,000 rpm for 20 min and the pellets were frozen at −80° C.
(§2) The pellets from 200 ml of culture cells were thawed on ice and resuspended in 5 ml of Na2HPO4 pH 8 containing 300 mM NaCl, 5 mM MgCl2 and 1 mM DTT. Twenty microliters of lysonase (Novagen) were added. Cells were incubated 10 minutes at room temperature and then returned to ice for 20 minutes. Cell lysis was completed by sonication for 3×15 seconds. The bacterial extracts were then clarified by centrifugation at 4° C., 10,000 rpm for 20 min. The clarified bacterial lysates were loaded on PROTINO-1000 Ni-TED column (Macherey-Nagel) allowing adsorption of 6-His tagged proteins. Columns were washed and the enzymes of interest were eluted with 4 ml of 50 mM Na2HPO4 pH 8 containing 300 mM NaCl, 5 mM MgCl2, 1 mM DTT, 250 mM imidazole. […] Protein concentrations were quantified according to the Bradford method. […]
(§3) The purified 4-methyl-5-(2-hydroxyethyl) thiazole kinases from Escherichia coli, Bacillus subtilis, Rhizobium leguminosarum were evaluated for their ability to phosphorylate prenol. The release of ADP associated to prenol phosphorylation was quantified using the pyruvate kinase/lactate dehydrogenase coupled assay (FIG. 4). […]
(§4) Each assay was started by the addition of the enzyme at a final concentration 0.5 mg/ml and the decrease of NADH was monitored by following its absorbance at 340 nm. […]

Substrate in series [2]: C=C(C)CCO
Put plainly: Isoprenol phosphorylation, pyruvate kinase/lactate dehydrogenase coupled assay (ADP release), B. subtilis kinase. The series is classed as biochemical, Bacillus subtilis. To be noted: other: isoprenol 0-40 mM, 5 mM ATP, pH 7.5, 37° C., enzyme 0.025 mg/ml. The procedure: as §1, §2
(§5) The release of ADP that is associated with isoprenol phosphorylation was quantified using the pyruvate kinase/lactate dehydrogenase coupled assay (FIG. 4). The purified 4-methyl-5-(2-hydroxyethyl)thiazole kinases from Escherichia coli, Bacillus subtilis, Rhizobium leguminosarum were thus evaluated for their ability to phosphorylate isoprenol. […]
(§6) Each assay was started by the addition of the enzyme at a final concentration 0.025 mg/ml and the decrease of NADH was monitored by following its absorbance at 340 nm. […]

Substrate in series [3]: C=C(C)CCO
Put plainly: Isoprenol phosphorylation, pyruvate kinase/lactate dehydrogenase coupled assay (ADP release), E. coli kinase. The series is classed as biochemical, Escherichia coli. Conditions: other: isoprenol 0-40 mM, 5 mM ATP, pH 7.5, 37° C., enzyme 0.025 mg/ml. Here is the method:
as §1, §2, §5, §6

Substrate in series [4]: CC(C)=CCO
Put plainly: Prenol phosphorylation, pyruvate kinase/lactate dehydrogenase coupled assay (ADP release), E. coli kinase. To be noted: other: prenol, 5 mM ATP, pH 7.5, 37° C., enzyme 0.5 mg/ml. The series is classed as biochemical, Escherichia coli. Here is the method: as §1, §2, §3, §4

Series [5] is described as follows: Screening for isoprene production from isoprenyl monophosphate with purified terpene synthases. The series is classed as biochemical. To be noted: 10 mM isoprenyl monophosphate, 37° C., 17 h, GC-FID / GC-MS of headspace. Here is the method: The enzymatic assays were carried out under the following conditions at 37° C.:
10 mM isoprenyl monophosphate (Sigma)
2.5 mg of the terpene synthase was added to 0.5 ml of reaction mixture. An enzyme-free control reaction was carried out in parallel. Assays were incubated at 37° C. for 17 h in a 1.5 ml sealed glass vial (Interchim) with shaking. One ml of the headspace phase was then collected and injected into a gas chromatograph Varian 430-GC chromatograph equipped with a flame ionization detector (FID). Nitrogen was used as carrier gas with a flow rate of 30 mL/min. Volatile compounds were chromatographically separated on Rtx-1 column (Restek) using an isothermal mode at 100° C. The enzymatic reaction product was identified by direct comparison with isoprene standard (Sigma). Under these GC conditions, the retention time for isoprene was 3.47 min. […] Gas chromatography-mass spectrometry (GC-MS) was then used to confirm the identity of the product detected by gas chromatography with flame ionization. The samples were analyzed on a Varian 3400Cx gas chromatograph equipped with Varian Saturn 3 mass selective detector. A mass spectrum of isoprene obtained by enzymatic conversion of isoprenyl monophosphate was similar to the one of commercial isoprene (FIG. 8).

Substrate in series [6]: C=C(C)CCOP(=O)(O)O
The series is described as follows: Isoprene production from isoprenyl monophosphate, GC/FID. To be noted: other: isoprenyl monophosphate 0-150 mM, pH 7.5, 20 mM MgCl2, 37° C., 18 h, enzyme 4 mg/ml. The series is classed as biochemical, Eucalyptus globulus. Here is the method: as §1
The pellets from 200 ml of culture cells were thawed on ice and resuspended in 5 ml of Na2HPO4 pH 8 containing 300 mM NaCl, 5 mM MgCl2 and 1 mM DTT. […] Protein concentrations were quantified according to the Bradford method. […]
2.5 mg of the terpene synthase was added to 0.5 ml of reaction mixture. […] Gas chromatography-mass spectrometry (GC-MS) was then used to confirm the identity of the product detected by gas chromatography with flame ionization. The samples were analyzed on a Varian 3400Cx gas chromatograph equipped with Varian Saturn 3 mass selective detector. […]
Kinetic parameters of isoprene production were evaluated in the following conditions: […]

Substrate in series [7]: CC(C)=CCOP(=O)(O)O
The series is described as follows: purified protein, by the assay type. To be noted: other: prenyl monophosphate 0-150 mM, pH 7.5, 20 mM MgCl2, 37° C., 18 h, enzyme 2 mg/ml.

Substrate in series [8]: C=C(C)CCO
The series is described as follows: Isoprenol phosphorylation, pyruvate kinase/lactate dehydrogenase coupled assay (ADP release), R. leguminosarum kinase. The series is classed as biochemical, Rhizobium leguminosarum. Conditions: other: isoprenol 0-40 mM, 5 mM ATP, pH 7.5, 37° C., enzyme 0.025 mg/ml. The procedure: as §1, §2, §5, §6

Substrate in series [9]: CC(C)=CCO
Put plainly: Prenol phosphorylation, pyruvate kinase/lactate dehydrogenase coupled assay (ADP release), R. leguminosarum kinase. The series is classed as biochemical, Rhizobium leguminosarum. To be noted: other: prenol, 5 mM ATP, pH 7.5, 37° C., enzyme 0.5 mg/ml. Here is the method: as §1, §2, §3, §4

B1: Bacillus subtilis 4-methyl-5-(2-hydroxyethyl)thiazole kinase (hydroxyethylthiazole kinase, EC 2.7.1.50) (Bacillus subtilis subsp. subtilis str. 168) (protein)
chain: MDAQSAAKCLTAVRRHSPLVHSITNNVVTNFTANGLLALGASPVMAYAKEEVADMAKIAGALVLNIGTLSKESVEAMIIAGKSANEHGVPVILDPVGAGATPFRTESARDIIREVRLAAIRGNAAEIAHTVGVTDWLIKGVDAGEGGGDIIRLAQQAAQKLNTVIAITGEVDVIADTSHVYTLHNGHKLLTKVTGAGCLLTSVVGAFCAVEENPLFAAIAAISSYGVAAQLAAQQTADKGPGSFQIELLNKLSTVTEQDVQEWATIERVTVS
notes: homotrimer
With B1, in series [1], the Km – broadly, the concentration of substrate that gives half-maximal velocity – came to 3 mM; the kcat – broadly, the maximal rate divided by the concentration of active sites – worked out at 0.006 s⁻¹; the catalytic efficiency (kcat/Km) (as a rule, the turnover number divided by the Michaelis constant) was 2 M⁻¹ s⁻¹. Further, in [2], the Km was determined as 3 mM, the kcat was determined as 0.03 s⁻¹ and the catalytic efficiency (kcat/Km) was 10 M⁻¹ s⁻¹.

B2: Escherichia coli 4-methyl-5-(2-hydroxyethyl)thiazole kinase (hydroxyethylthiazole kinase, EC 2.7.1.50) (Escherichia coli K-12) (protein)
chain: MQVDLLGSAQSAHALHLFHQHSPLVHCMTNDVVQTFTANTLLALGASPAMVIETEEASQFAAIASALLINVGTLTQPRAQAMRAAVEQAKSSQTPWTLDPVAVGALDYRRHFCHELLSFKPAAIRGNASEIMALAGIANGGRGVDTTDAAANAIPAAQTLARETGAIVVVTGEMDYVTDGHRIIGIHGGDPLMTKVVGTGCALSAVVAACCALPGDTLENVASACHWMKQAGERAVARSEGPGSFVPHFLDALWQLTQEVQA
Consider B2, for which, in series [3], the Km is 7.5 mM, the kcat worked out at 1 s⁻¹ and the kcat/Km came to 130 M⁻¹ s⁻¹. Besides, in series [4], the Km is reported as 3 mM, the kcat is 0.05 s⁻¹ and the kcat/Km was 16 M⁻¹ s⁻¹.

B3: monoterpene synthase from E. globulus: purified monoterpene synthase of Eucalyptus globulus (UniProt Q0PCI4, SEQ ID NO: 6) (protein, listed as Eucalyptus globulus)
chain: MALRLLFTPHLPVLSSRRANGRVRCSASTQISDPQEGRRSANYQPSVWTYNYLQSIVAGEGRQSRREVEQQKEKVQILEEEVRGALNDEKAETFTIFATVDDIQRLGLGDHFEEDISNALRRCVSKGAVFMSLQKSLHGTALGFRLLRQHGYEVSQDVFKIFLDESGSFVKTLGGDVQGVLSLYEASHLAFEEEDILHKARSFAIKHLENLNSDVDKDLQDQVKHELELPLHRRMPLLEARRSIEAYSRREYTNPQILELALTDFNVSQSTLQRDLQEMLGWWNNTGLAKRLSFARDRLIECFFWAVGIAHEPSLSICRKAVTKAFALILVLDDVYDVFGTLEELELFTEAVRRWDLNAVEDLPVYMKLCYLALYNSVNEMAYETLKEKGENVIPYLAKAWYDLCKAFLQEAKWSNSRIIPGVEEYLNNGWVSSSGSVMLIHAYFLASPSIRKEELESLEHYHDLLRLPSLIFRLTNDIASSSAELERGETTNSIRCFMQEKGISELEARECVKEEIDTAWKKMNKYMVDRSTFNQSFVRMTYNLARMAHCVYQDGDAIGSPDDLSWNRVHSLIIKPISPAA
Consider B3, for which the “Isoprene production from isoprenyl monophosphate” value in series [5] was “isoprene produced”.

B4: Eucalyptus globulus monoterpene synthase (UniProt Q0PCI4), SEQ ID NO: 6 (Eucalyptus globulus) (protein)
chain: ASTQISDPQEGRRSANYQPSVWTYNYLQSIVAGEGRQSRREVEQQKEKVQILEEEVRGALNDEKAETFTIFATVDDIQRLGLGDHFEEDISNALRRCVSKGAVFMSLQKSLHGTALGFRLLRQHGYEVSQDVFKIFLDESGSFVKTLGGDVQGVLSLYEASHLAFEEEDILHKARSFAIKHLENLNSDVDKDLQDQVKHELELPLHRRMPLLEARRSIEAYSRREYTNPQILELALTDFNVSQSTLQRDLQEMLGWWNNTGLAKRLSFARDRLIECFFWAVGIAHEPSLSICRKAVTKAFALILVLDDVYDVFGTLEELELFTEAVRRWDLNAVEDLPVYMKLCYLALYNSVNEMAYETLKEKGENVIPYLAKAWYDLCKAFLQEAKWSNSRIIPGVEEYLNNGWVSSSGSVMLIHAYFLASPSIRKEELESLEHYHDLLRLPSLIFRLTNDIASSSAELERGETTNSIRCFMQEKGISELEARECVKEEIDTAWKKMNKYMVDRSTFNQSFVRMTYNLARMAHCVYQDGDAIGSPDDLSWNRVHSLIIKPISPAA
Consider B4, for which, in series [6], the Km worked out at 40 mM and the kcat was 1.6e-05 s⁻¹. Moreover, in series [7], the Michaelis constant (Km) is on record as 60 mM and the kcat was 0.00056 s⁻¹.

B5: Rhizobium leguminosarum 4-methyl-5-(2-hydroxyethyl)thiazole kinase (hydroxyethylthiazole kinase, EC 2.7.1.50) (Rhizobium johnstonii 3841) (protein)
chain: MQTRTTPGAMLKAMREKPPLVQCITNYVAMNIAANVLLAAGASPAMVHAAEEAGEFAAIASALTINIGTLSTQWIDGMQAAAKAATSAGKPWVLDPVAHYATAFRRNAVAELLALKPTIIRGNASEIIALAGGESRGQGVDSRDPVEQAEGSARWLAERQRAVVAVTGAVDFVTDGERAVRIEGGSALMPQVTALGCSLTCLVGAFAATAPEDIFGATVAALSTFAIAGEEAALGAAGPGSFSWRFLDALAALDAETLDARARISAA
For the molecule B5, in [8], the Km is on record as 10 mM, the turnover number (kcat) turned out to be 0.8 s⁻¹ and the kcat/Km worked out at 80 M⁻¹ s⁻¹. In series [9], the Michaelis-Menten constant (Km) came to 10 mM, the turnover number (kcat) amounted to 0.01 s⁻¹ and the specificity constant (kcat/Km) is 1 M⁻¹ s⁻¹.
